Experimental data from the supplement of paper PMC10567573.

B1: GAGE1 (parent)
chain: QPPEMIGPMRPEQFSDEVEPATPE
B2: KLHL14 (parent)
chain: YVIGGRNETGYLSSVECYNLETNE

Variants of: B1
Experiment: protein stability index of a GFP-peptide fusion (GPS, HEK-293T) (PSI 1-6); higher = more stable
Conditions: c terminus: a fixed tail appended
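Further: lentivirally expressed fusions sorted by FACS into six bins by GFP to DsRed ratio, PSI derived from sequencing read proportions per bin multiplied by bin number.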

Protein stability index: each site, then its substitutions
E17: M 5.16 | H 5.56 | W 4.85 | L 5.04 | T 5.08 | G 5.16 | Q 5.42 | Y 4.05 | K 5.12 | A 5.08 | V 4.96 | I 4.89 | R 5.34 | F 4.86 | D 4.85 | P 4.73 | S 5.44 | N 5.01 | C 4.91
P23: E 4.81 | V 4.5 | T 4.81 | R 5.3 | K 5.1 | G 5.2 | W 4.41 | D 5.28 | I 4.72 | A 5.02 | M 5.05 | Q 5.16 | Y 4.4 | C 4.57 | H 5 | L 4.9 | S 5.14 | N 5.26 | F 4.69
T22: A 4.6 | Y 4.84 | K 4.96 | C 4.97 | W 4.35 | Q 5.2 | R 4.61 | N 4.56 | D 5.43 | M 4.79 | L 4.79 | H 4.89 | V 4.8 | G 5.15 | F 4.46 | E 5.2 | P 5.08 | I 4.66
A21: F 5.05 | W 4.7 | C 4.59 | D 5.12 | L 4.9 | T 4.83 | Y 4.08 | V 5.34 | M 5.17 | G 4.98 | I 4.87 | P 4.6 | K 5.32 | H 4.66 | R 5 | E 5.21 | Q 4.79 | N 4.29 | S 4.79
D16: P 5.66 | Q 5.6 | S 5.31 | C 4.96 | I 5.39 | N 5.38 | L 5.32 | G 4.98 | K 5.51 | T 5.46 | E 3.25 | M 5.32 | F 5.74 | V 5.54 | R 5.33 | A 5.69 | Y 5.43 | W 5.24 | H 5.57
E24: R 4.27 | L 4.09 | V 4.45 | S 4.65 | P 4.65 | Q 4.61 | N 5.18 | G 4.67 | I 4.56 | Y 4.57 | K 4.68 | W 4.16 | C 4.6 | F 4.83 | A 4.99 | T 4.98 | H 4.62 | M 4.37 | D 4.51
P20: T 4.91 | K 4.79 | N 4.75 | W 3.7 | M 4.65 | Y 5.13 | D 5.25 | S 5.18 | E 4.92 | A 4.44 | F 4.98 | Q 5.21 | R 5 | L 5.27 | H 5.46 | G 5.36 | I 4.96 | C 4.84
E19: G 4.86 | W 4.75 | Y 4.65 | S 5.18 | Q 5.33 | R 3.98 | N 5.06 | M 4.83 | H 5.04 | C 4.62 | D 5.25 | I 5.05 | L 4.04 | K 4.42 | A 5.03 | P 4.43 | F 4.95 | T 5.17 | V 4.09
S15: Y 4.59
V18: M 4.75 | A 5.25 | P 4.85 | R 4.85 | D 4.79 | Q 5.35 | E 4.96 | T 4.79 | K 5.12 | W 5.04 | I 4.91 | C 4.78 | F 5.13 | S 5.44 | N 5.32 | H 5.26 | L 4.59 | Y 4.22 | G 4.72

Variants of: B2
Experiment: as above
Conditions: c terminus: a fixed tail appended

Protein stability index of substitutions, site by site:
I3: K 1.58 | S 1.61 | Q 2.06 | E 2.64 | F 1.76 | G 2.4 | N 1.81 | D 2.39 | V 2.24 | L 1.84 | W 1.02 | C 1.66 | A 3.4 | T 2.18 | P 2.65 | Y 1.3 | M 2.1 | H 1.83 | R 1.49
G5: F 2.41 | E 3.15 | L 2.82 | Y 1.72 | A 1.71 | K 1.76 | D 3.12 | P 1.89 | T 2.33 | S 2.31 | N 1.92 | W 2.92 | Q 2.1 | V 1.49 | I 2.24 | R 1.71 | C 1.93 | M 1.69 | H 1.74
N7: L 2.36 | M 1.66 | A 2.03 | D 2.5 | K 2.27 | E 2.59 | V 1.71 | W 1.63 | C 1.7 | Q 1.91 | F 2.29 | G 1.99 | S 2.63 | R 2.38 | P 1.84 | Y 1.5 | T 1.85 | I 1.74 | H 2.45
Y1: W 2.87 | V 3.2 | H 4.61 | L 2.96 | R 4.39 | A 4.43 | Q 4.68 | K 4.12 | G 4.99 | E 4.45 | M 3.55 | P 4.82 | C 3.48 | T 4.71 | D 4.64 | S 4.63 | I 2.06 | F 2.19 | N 4.25
E8: I 1.81 | F 1.99 | H 2.02 | T 1.78 | D 1.56 | A 1.45 | M 2.21 | K 1.89 | N 1.8 | P 1.16 | L 1.32 | V 1.78 | R 1.95 | Q 1.88 | W 2.08 | Y 1.84 | G 2.44 | S 2.09
V2: E 4.59 | F 3.32 | R 3.4 | W 2.44 | T 3.5 | P 3.9 | I 2.14 | S 3.89 | D 4.57 | L 3.33 | K 3.91 | Y 3.4 | A 3.08 | H 2.15 | M 3.87 | N 4.24 | C 2.87 | Q 2.7 | G 4
T9: E 2.67 | A 1.9 | M 2.37 | P 1.9 | C 1.73 | L 1.69 | N 1.83 | D 2.23 | H 1.6 | I 1.49 | K 2.13 | F 2.21 | G 1.69
G4: W 2.32 | D 1.89 | H 2.4 | F 1.31 | M 2.31 | S 2.46 | N 1.89 | V 1.3 | I 2.1 | T 1.5 | A 1.77 | R 1.71 | P 2.56 | K 2.34 | L 1.47 | Q 2.55 | C 1.75 | E 2.11 | Y 2.42
R6: E 2.97 | F 1.5 | M 1.69 | N 2.2 | Y 1.69 | D 2.57 | P 2.51 | T 2.52 | W 1.96 | I 1.67 | A 2.93 | H 1.9 | G 1.92 | Q 2.77 | K 2.05 | V 1.87 | L 2.09 | C 2.21 | S 2.35
